Assay results from patent publication US20180155406A1 (Sanofi, published 2018).
Numbered stars: 1 amine (or outer) side, 2 acyl side, 3 side chain; on linkers, the order of the positions; unused ones are H or OH. Square brackets hold non-standard residues; d marks the D form. Side chains are listed from the residue outwards. Ends that are not written are not given here. * marks the point of attachment. γGlu = O=C(O)[C@H](CCC(=O)[*:2])N[*:1]; Stearoyl = CCCCCCCCCCCCCCCCCC(=O)*; Palmitoyl = CCCCCCCCCCCCCCCC(=O)*; Aib = CC(C)(N)C(=O)O

T1: human GIP receptor (human, UniProt P48546 22-466)
T1 sequence (looked up): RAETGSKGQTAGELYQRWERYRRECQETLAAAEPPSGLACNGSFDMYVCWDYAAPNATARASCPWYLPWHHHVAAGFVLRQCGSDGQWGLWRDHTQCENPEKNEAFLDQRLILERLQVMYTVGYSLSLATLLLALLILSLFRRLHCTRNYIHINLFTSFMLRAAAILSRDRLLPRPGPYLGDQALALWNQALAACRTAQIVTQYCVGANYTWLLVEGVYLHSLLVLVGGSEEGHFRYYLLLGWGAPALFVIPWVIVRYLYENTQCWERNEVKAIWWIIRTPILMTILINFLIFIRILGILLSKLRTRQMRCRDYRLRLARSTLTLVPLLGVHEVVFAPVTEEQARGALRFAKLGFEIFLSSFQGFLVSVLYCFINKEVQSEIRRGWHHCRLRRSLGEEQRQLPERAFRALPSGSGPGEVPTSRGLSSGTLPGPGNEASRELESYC


Columns and labels:
Test in all cases: cell-based or functional assay
[1] = biological target: human GLP-1 receptor (human, UniProt P43220 24-463)
[2] = biological target: human glucagon receptor (human, UniProt P47871 26-477)
[3] = biological target: T1, human GIP receptor

human glucagon receptor, sequence (P47871 26-477): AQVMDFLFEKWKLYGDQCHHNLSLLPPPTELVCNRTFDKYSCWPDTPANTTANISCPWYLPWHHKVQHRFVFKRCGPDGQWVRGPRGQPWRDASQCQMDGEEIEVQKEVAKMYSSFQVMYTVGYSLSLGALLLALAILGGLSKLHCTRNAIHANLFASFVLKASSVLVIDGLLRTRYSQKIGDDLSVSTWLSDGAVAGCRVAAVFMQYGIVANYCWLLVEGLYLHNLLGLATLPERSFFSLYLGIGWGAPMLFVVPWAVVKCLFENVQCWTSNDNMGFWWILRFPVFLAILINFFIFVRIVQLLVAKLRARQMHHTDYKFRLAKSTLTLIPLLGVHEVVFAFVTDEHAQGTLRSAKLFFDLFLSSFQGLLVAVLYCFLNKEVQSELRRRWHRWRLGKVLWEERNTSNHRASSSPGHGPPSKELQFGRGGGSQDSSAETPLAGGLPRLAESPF

Binder | EC50 hGLP-1R (cAMP formation) [1] [pM] | EC50 hGlucagon R (cAMP formation) [2] [pM] | EC50 hGIP R (cAMP formation) [3] [pM]
H[Aib]HGTFTSDLSKLK([γGlu-γGlu-Palmitoyl])EEQRQKEFIEWLKAGGHPS[Aib]KPPPK-NH2 (N-terminus assumed; SMILES CCCCCCCCCCCCCCCC(=O)N[C@@H](CCC(=O)N[C@@H](CCC(=O)NCCCC[C@H](NC(=O)[C@H](CC(C)C)NC(=O)[C@H](CCCCN)NC(=O)[C@H](CO)NC(=O)[C@H](CC(C)C)NC(=O)[C@H](CC(=O)O)NC(=O)[C@H](CO)NC(=O)[C@@H](NC(=O)[C@H](Cc1ccccc1)NC(=O)[C@@H](NC(=O)CNC(=O)[C@H](Cc1c[nH]cn1)NC(=O)C(C)(C)NC(=O)[C@@H](N)Cc1c[nH]cn1)[C@@H](C)O)[C@@H](C)O)C(=O)N[C@@H](CCC(=O)O)C(=O)N[C@@H](CCC(=O)O)C(=O)N[C@@H](CCC(N)=O)C(=O)N[C@@H](CCCNC(=N)N)C(=O)N[C@@H](CCC(N)=O)C(=O)N[C@@H](CCCCN)C(=O)N[C@@H](CCC(=O)O)C(=O)N[C@@H](Cc1ccccc1)C(=O)N[C@H](C(=O)N[C@@H](CCC(=O)O)C(=O)N[C@@H](Cc1c[nH]c2ccccc12)C(=O)N[C@@H](CC(C)C)C(=O)N[C@@H](CCCCN)C(=O)N[C@@H](C)C(=O)NCC(=O)NCC(=O)N[C@@H](Cc1c[nH]cn1)C(=O)N1CCC[C@H]1C(=O)N[C@@H](CO)C(=O)NC(C)(C)C(=O)N[C@@H](CCCCN)C(=O)N1CCC[C@H]1C(=O)N1CCC[C@H]1C(=O)N1CCC[C@H]1C(=O)N[C@@H](CCCCN)C(N)=O)[C@@H](C)CC)C(=O)O)C(=O)O) [SEQ ID NO: 6] | 1.4 | 2.3 | 2.1
H[Aib]HGTFTSDLSKLK([γGlu-Palmitoyl])EEQRQKEFIEWLKAGGPPS[Aib]KPPPK-NH2 (N-terminus assumed; SMILES CCCCCCCCCCCCCCCC(=O)N[C@@H](CCC(=O)NCCCC[C@H](NC(=O)[C@H](CC(C)C)NC(=O)[C@H](CCCCN)NC(=O)[C@H](CO)NC(=O)[C@H](CC(C)C)NC(=O)[C@H](CC(=O)O)NC(=O)[C@H](CO)NC(=O)[C@@H](NC(=O)[C@H](Cc1ccccc1)NC(=O)[C@@H](NC(=O)CNC(=O)[C@H](Cc1c[nH]cn1)NC(=O)C(C)(C)NC(=O)[C@@H](N)Cc1c[nH]cn1)[C@@H](C)O)[C@@H](C)O)C(=O)N[C@@H](CCC(=O)O)C(=O)N[C@@H](CCC(=O)O)C(=O)N[C@@H](CCC(N)=O)C(=O)N[C@@H](CCCNC(=N)N)C(=O)N[C@@H](CCC(N)=O)C(=O)N[C@@H](CCCCN)C(=O)N[C@@H](CCC(=O)O)C(=O)N[C@@H](Cc1ccccc1)C(=O)N[C@H](C(=O)N[C@@H](CCC(=O)O)C(=O)N[C@@H](Cc1c[nH]c2ccccc12)C(=O)N[C@@H](CC(C)C)C(=O)N[C@@H](CCCCN)C(=O)N[C@@H](C)C(=O)NCC(=O)NCC(=O)N1CCC[C@H]1C(=O)N1CCC[C@H]1C(=O)N[C@@H](CO)C(=O)NC(C)(C)C(=O)N[C@@H](CCCCN)C(=O)N1CCC[C@H]1C(=O)N1CCC[C@H]1C(=O)N1CCC[C@H]1C(=O)N[C@@H](CCCCN)C(N)=O)[C@@H](C)CC)C(=O)O) [SEQ ID NO: 20] | 4.8 | 4.2 | 1.9
H[Aib]HGTFTSDLSKLK([γGlu-Palmitoyl])EEQRQ[Aib]EFIEWLKAGGPPS[Aib]KPPPK-NH2 (N-terminus assumed; SMILES CCCCCCCCCCCCCCCC(=O)N[C@@H](CCC(=O)NCCCC[C@H](NC(=O)[C@H](CC(C)C)NC(=O)[C@H](CCCCN)NC(=O)[C@H](CO)NC(=O)[C@H](CC(C)C)NC(=O)[C@H](CC(=O)O)NC(=O)[C@H](CO)NC(=O)[C@@H](NC(=O)[C@H](Cc1ccccc1)NC(=O)[C@@H](NC(=O)CNC(=O)[C@H](Cc1c[nH]cn1)NC(=O)C(C)(C)NC(=O)[C@@H](N)Cc1c[nH]cn1)[C@@H](C)O)[C@@H](C)O)C(=O)N[C@@H](CCC(=O)O)C(=O)N[C@@H](CCC(=O)O)C(=O)N[C@@H](CCC(N)=O)C(=O)N[C@@H](CCCNC(=N)N)C(=O)N[C@@H](CCC(N)=O)C(=O)NC(C)(C)C(=O)N[C@@H](CCC(=O)O)C(=O)N[C@@H](Cc1ccccc1)C(=O)N[C@H](C(=O)N[C@@H](CCC(=O)O)C(=O)N[C@@H](Cc1c[nH]c2ccccc12)C(=O)N[C@@H](CC(C)C)C(=O)N[C@@H](CCCCN)C(=O)N[C@@H](C)C(=O)NCC(=O)NCC(=O)N1CCC[C@H]1C(=O)N1CCC[C@H]1C(=O)N[C@@H](CO)C(=O)NC(C)(C)C(=O)N[C@@H](CCCCN)C(=O)N1CCC[C@H]1C(=O)N1CCC[C@H]1C(=O)N1CCC[C@H]1C(=O)N[C@@H](CCCCN)C(N)=O)[C@@H](C)CC)C(=O)O) [SEQ ID NO: 18] | 5.3 | 2.8 | 2
H[Aib]HGTFTSDLSKLK([γGlu-Stearoyl])EEQRQ[Aib]EFIEWLKAGGPPS[Aib]KPPPK-NH2 (N-terminus assumed; SMILES CCCCCCCCCCCCCCCCCC(=O)N[C@@H](CCC(=O)NCCCC[C@H](NC(=O)[C@H](CC(C)C)NC(=O)[C@H](CCCCN)NC(=O)[C@H](CO)NC(=O)[C@H](CC(C)C)NC(=O)[C@H](CC(=O)O)NC(=O)[C@H](CO)NC(=O)[C@@H](NC(=O)[C@H](Cc1ccccc1)NC(=O)[C@@H](NC(=O)CNC(=O)[C@H](Cc1c[nH]cn1)NC(=O)C(C)(C)NC(=O)[C@@H](N)Cc1c[nH]cn1)[C@@H](C)O)[C@@H](C)O)C(=O)N[C@@H](CCC(=O)O)C(=O)N[C@@H](CCC(=O)O)C(=O)N[C@@H](CCC(N)=O)C(=O)N[C@@H](CCCNC(=N)N)C(=O)N[C@@H](CCC(N)=O)C(=O)NC(C)(C)C(=O)N[C@@H](CCC(=O)O)C(=O)N[C@@H](Cc1ccccc1)C(=O)N[C@H](C(=O)N[C@@H](CCC(=O)O)C(=O)N[C@@H](Cc1c[nH]c2ccccc12)C(=O)N[C@@H](CC(C)C)C(=O)N[C@@H](CCCCN)C(=O)N[C@@H](C)C(=O)NCC(=O)NCC(=O)N1CCC[C@H]1C(=O)N1CCC[C@H]1C(=O)N[C@@H](CO)C(=O)NC(C)(C)C(=O)N[C@@H](CCCCN)C(=O)N1CCC[C@H]1C(=O)N1CCC[C@H]1C(=O)N1CCC[C@H]1C(=O)N[C@@H](CCCCN)C(N)=O)[C@@H](C)CC)C(=O)O) [SEQ ID NO: 19] | 6.1 | 3.1 | 4
